“And” between values parts separate entries of the source, which are not always exact repeats. Identical values can stand only once.
B1: IL-10: carrier free recombinant rat IL-10 (R&D systems), anti-inflammatory cytokine (protein, UniProt P29456 19-178, looked up)
Interleukin-10: SKGHSIRGDNNCTHFPVSQTHMLRELRAAFSQVKTFFQKKDQLDNILLTDSLLQDFKGYLGCQALSEMIKFYLVEVMPQAENHGPEIKEHLNSLGEKLKTLWIQLRRCHRFLPCENKSKAVEQVKNDFNKLQDKGVYKAMNEFDIFINCIEAYVTLKMKN
B2: NP3+IL-10: recombinant rat IL-10 conjugated to 200 nm plasma polymer nanoparticles (nanoP3) (conjugate, UniProt P29456 19-178, looked up)
Interleukin-10: B1 Interleukin-10
modifications: conjugated to 200 nm plasma polymer nanoparticles
B3: IL-4: carrier free recombinant rat IL-4 (R&D systems), anti-inflammatory cytokine (protein, UniProt P20096 25-147, looked up)
Interleukin-4: CNDSPLREIINTLNQVTEKGTPCTEMFVPDVLTATRNTTENELICRASRVLRKFYFPRDVPPCLKNKSGVLGELRKLCRGVSGLNSLRSCTVNESTLTTLKDFLESLKSILRGKYLQSCTSMS
B4: NP3+IL-4: recombinant rat IL-4 conjugated to plasma polymer nanoparticles (nanoP3, 200 nm) (conjugate, UniProt P20096 25-147, looked up)
Interleukin-4: B3 Interleukin-4
modifications: conjugated to 200 nm plasma polymer nanoparticles

Experiments:
[1] = system: rat carotid model of vessel injury; assay: Rat carotid injury and nanoP3 delivery model (neointima, endothelium, M2 macrophages); type: in vivo; conditions: for repair of the damaged endothelium (immunostaining, von Willebrand factor): 14 days after injury; for vessel re-endothelialisation / healing (von Willebrand factor staining): 200 nm NP3, FIG. 8; for vascular occlusion (neointima formation percentage of cross-sectional lumen area): denuded injury roughly 60%
Method: (§1) Study approval was obtained from the Sydney Local Health District Animal Welfare Committee (protocol number 2017/006). Experiments were conducted in accordance with the Australian Code of Practice for the Care and Use of Animals for Scientific Purpose. Rats (Sprague Dawley, male, 7 weeks) were purchased from Laboratory Animal Service (NSW, Australia). Rats were given a single intramuscular injection of ketamine (75 mg/kg) and medetomidine (0.5 mg/kg) to induce anaesthesia. The common carotid artery was isolated and double ligations were spaced roughly 1 cm apart. A small incision at the distal end was made, through which microintraocular forceps (World Precision Instruments, USA) were inserted, expanded to their full width and rotated 360 degrees to injured the entire luminal surface area of the vessel. This was repeated 5 times before withdrawing the forceps, and inserting a 22G catheter into the same incision. Through the catheter, IL-4 or IL-10 bound nanoP3 solutions were injected at a concentration of 2×10^8 nanoP3 in a total volume of roughly 80 μl of RPMI media. The nanoP3 solutions were allowed to incubate for 2 minutes and then withdrawn completely from the vessel. The incision was sutured closed using a 9-0 nylon suture, and both ligations were undone to re-establish blood flow. The isolated vessel segments were then explanted 14 days later for pathological evaluation.
After 14 days in vivo, vessel explants were fixed in 4% PFA overnight and subjected to ethanol dehydrations prior to paraffin embedding. Embedded vessel segments were then sectioned in 5 μm thick slices in the longitudinal direction. M2 macrophage and luminal endothelium staining was conducted using anti-CD206 (Abcam, USA) and anti-VonWillebrand Factor (Sigma, USA) antibodies. Fluorescent imaging was conducted by using Alexa-fluor 594 secondary antibodies. Staining of neointima formation was conducted using hematoxylin & eosin (H&E) staining. Normalised hyperplasia was calculated as the total area of hyperplasia divided the area of the original vessel lumen.
Using a rat carotid model of vessel injury, the efficacy of NP3+IL-10, NP3+Sirolimus or NP3+Sulindac to treat cardiovascular pathology was determined in vivo. Carrier -free recombinant rat IL-10 (1.34 μg/10^9 nanoP3; R&D systems, USA), Sirolimus (2.50 μg/10^9 nanoP3; rapamycin, Sigma-Merck, USA), Sulindac (3.05 μg/10^9nanoP3; Sigma-Merck, USA), or a Cy7 fluorescent tag (5.03 μg/10^9 nanoP3; CF750 Antibody Label, Sigma-Merck, USA) were diluted in sterile water and conjugated to 2×10^9 nanoP3.
The rats were subjected to vessel injury as described in Example 3 except that through the catheter, IL-10, Sirolimus or Sulindac bound nanoP3 solutions were injected at a concentration of 2×10^8 nanoP3 (IL-10, 0.268 μg; Sirolimus, 0.5 μg; Sulindac 0.61 μg; Cy7, 1.01 μg), in a total volume of roughly 80 μl of RPMI media.

[2] = Interleukin surface binding to nanoP3 (fluorescence of Cy5 label in leftover washes); type: physicochemical; conditions: ultra-pure water pH 6.5, room temperature; for maximum binding efficiency of nanoP3 to interleukin in solution: Cy5-tagged interleukin; for loading capacity, further increased loading: at lower binding efficiency
Method: Carrier free recombinant rat IL-4 and IL-10 (R&D systems, USA) were dissolved in phosphate buffered saline (PBS) at a stock concentration of 100 ng/μl. To establish binding kinetics, each interleukin was tagged with a Lightning-link Cy5 antibody label (Novus Biologicals, USA). For every 1×10^9 nanoP3 (200 nm diameter) in ultrapure water (Thermofisher, USA), either 1.42 μg of IL-4 or 1.32 μg of IL-10 was added. Additional water was added to reach a total reaction volume of 1 ml and left to incubate for a 1 h at room temperature. Binding kinetics were performed on a Clariostar monochromator microplate reader (BMG Labtech, Germany) using the leftover washes following 1 h incubations.
The binding efficiency of nanoP3 to IL-4 in solution was maximum at 99%, corresponding to a loading capacity of 0.5±0.01 μg/10^9 particles. […] The maximum binding efficiency of nanoP3 to IL-10 was 99.9%, representing a total mass loading capacity of 0.5±0.02 μg/10^9 particles. Further loading of IL-10 onto nanoP3 was observed up to 0.80±0.02 μg/10^9 particles corresponding to a binding efficiency of 40%. All experiments were performed in ultra-pure water (pH=6.5) at room temperature. The incubation time was 30 minutes.

[3] = system: rabbit model of iliac arterial injury; assay: Rabbit iliac injury and nanoP3 delivery model; type: in vivo; conditions: 200 nm NP3, over seven days
Method: Study approval was obtained from the University of Sydney Animal Ethics Committee (AEC) protocol 2019-1653. Experiments were conducted in accordance with the Australian Code of Practice for the Care and Use of Animals for Scientific Purpose. An incision (˜1cm length) was made in the middle of the inguinal skin and the right femoral artery exposed after the blunt dissection of the muscle layers. The artery was ligated on the distal end and above the ligation, a small incision made to allow a 5F sheath (Abbott, TREK Coronary Dilatation Catheter, 3.25 mm) to be inserted. The sheath was held in place with sutures (3-0, silk). A 0.014 inch guide wire was inserted through the sheath, retrograde into the abdominal aorta. A 3.25 mm angioplasty balloon catheter was then inserted over the guide wire and advanced into the aorta. The location of NP3 delivery and the surrounding vasculature was determined by intravenous injection of contrast fluid ISOVUE 370 or OMNIPAQUE (75.5 g/100 ml), 25%-50% (v/v) contrast/saline prior to angiography.
Denudation of the iliac artery was performed by inflating the balloon at the bifurcation of the abdominal aorta to 3.1 mm diameter and withdrawn to the femoral artery slowly, 3 times (1 min per denudation). Through the main incision, the same balloon was re-inserted into the injured iliac to the bifurcation and inflated to 6-8 atm to occlude proximal blood flow. Immediately after blood flow has been occluded, a IL-10 nanoP3 solution (3×10^8 total 2 ml) was delivered through the sheath, inflating the artery, and allowed to incubate for 2 minutes before aspirating remaining solution back through the sheath. The sheath was removed, the femoral artery permanently ligated by 3-0 silk suture, followed by removal of the sheath. The exposed area was closed by 3-0 silk suture with individual stiches and double layer sutures.

[4] = system: Raw 246.7 mouse macrophage cells; assay: M2 macrophage polarisation in vitro (SEM, confocal arginase-1 staining); type: cell-based; conditions: 1×10^5 nanoP3/well, 24 hours; for expression of arginase-1 (ARG-1), confocal immunostaining: vs control and NP3 only; for M2 activation of macrophages (SEM spreading and surface roughness): vs untreated and NP3 only
Method: The inventors sought to investigate the effect of NP3+IL-4 on macrophage polarisation in vitro. Raw 246.7 mouse macrophage cells (ATCC, USA) were cultured at 5×10^3 cells/well in a 96 well plate. IL-4 bound nanoP3 was added into macrophage cultures at a concentration of 1×10^5 nanoP3/well. After 24 hours, macrophages were fixed in 4% paraformaldehyde prior to scanning electron microscopy (SEM) and confocal imaging. Confocal staining was performed using an Actin cytoskeletal stain (Abcam, USA) and an anti-arginase-1 antibody (Abcam, USA).
Raw 246.7 mouse macrophage cells (ATCC, USA) were cultured at 5×10^3 cells/well in a 96 well plate. IL-10 (1.34 μg/10^9 nanoP3) and Sulindac (3.05μg/10^9nanoP3) were bound to nanoP3 as described in Example 4.
NP3+IL-10 or NP3+Sulindac was added into macrophage cultures at a concentration of 1 x 10^5 nanoP3/well. After 24 hours, macrophages were fixed in 4% paraformaldehyde prior to scanning electron microscopy (SEM) and confocal imaging. Confocal staining was performed using an Actin cytoskeletal stain (Abcam, USA) and an anti-arginase-1 antibody (Abcam, USA).

[5] = Tracking of IL-4 retention in the isolated vessel (Cy5 tag), rat carotid injury model; type: in vivo; conditions: for IL-4 retention in the vessel after restoration of blood flow: 2 minutes incubation in isolated carotid
Method: A) Procedural workflow of vessel injury: 1. Microintraocular forceps are inserted into ligated/isolated carotid rat segments. 2. Forceps are expanded and rotated 360° to mimic balloon injury overexpansion injury/denudation. 3. Forceps are removed, and through the same incision a small gauge catheter is inserted. 4. NP3+IL-4 solutions are delivered through the catheter and are allowed to incubate in the isolated vessel for 2 minutes. 5. The incision is sutured, and blood flow is restored.
as §1

Molecule	repair of the damaged endothelium (immunostaining, von Willebrand factor) [1]	binding efficiency at further increased loading [2] [%]	loading capacity at maximum binding efficiency [2] [μg/10^9 particles]	maximum binding efficiency of nanoP3 to interleukin in solution [2]	loading capacity, further increased loading [2] [μg/10^9 particles]	expression of arginase-1 (ARG-1), confocal immunostaining [4]	M2 activation of macrophages (SEM spreading and surface roughness) [4]	vascular occlusion (neointima formation percentage of cross-sectional lumen area) ([1]; two weeks)	IL-4 retention in the vessel after restoration of blood flow [5]	other results
B1	absent	40	0.5±0.02	99.9% and 100%	0.80±0.02					effect on vascular occlusion ([1]; two weeks): no significant effects
B2	restore full endothelium integrity					significantly upregulated	causes M2 activation	~20%		incidence of thrombosis (CD31 staining) [3]: significantly reduced; neointimal hyperplasia / occlusion (H&E staining) ([3]; vs untreated controls): reduced hyperplasia; vessel inflammation, infiltration of pro-inflammatory macrophages (CD68 staining) ([3]; vs untreated controls): reduces the infiltration of pro-inflammatory macrophages; neointimal hyperplasia / occlusion (H&E staining) ([3]; vs untreated controls, listed as IL-10+NP3): reduced hyperplasia; neointimal hyperplasia / occlusion (H&E staining) ([3]; vs untreated controls, listed as NP3+IL10): reduced occlusion; vessel re-endothelialisation / healing (von Willebrand factor staining) [1]: stimulate healing; vessel re-endothelialisation / healing (von Willebrand factor staining) ([1]; listed as NP3 delivered IL-10): stimulates vessel healing; vessel inflammation/macrophage polarisation (CD206 co-staining with CD68) ([1]; 200 nm NP3, FIG. 9): promoting M2 macrophage polarisation; neointimal hyperplasia (H&E staining) ([1]; 200 nm NP3, compared to freely delivered agents, FIG. 7): inhibition of neointimal hyperplasia; presence of M2 macrophages in treated carotid segments (immunostaining, CD206) ([1]; 14 days, compared to denuded, NP3+IL-4 and free IL-10): significant increase
B3		53.1	0.5±0.01	99% and 100%	1.1±0.02				immediately washed away	
B4	restore full endothelium integrity					significantly upregulated	increases spreading (top row) and surface roughness	approximately 35%	significantly retained	M2 activation of macrophages (SEM spreading and surface roughness) ([4]; listed as nanoP3-IL4): causes M2 activation; persistence of IL-4 at substantial levels in the vessel [5]: ≥ 5 days

— US20220096655A1, “PLASMA POLYMER NANOPARTICLES CARRYING AGENTS” (THE HEART RESEARCH INSTITUTE LTD, priority 2019, published 2022)
